Data from patent US8206955B2, “Production of monatin and monatin precursors” (Cargill, Incorporated, priority 2003, dated 2012).

Assay: aminotransferase activity using D-tryptophan as substrate
Assay type: biochemical
Conditions: purified (P)
Protocol: Cell extracts were analyzed by SDS-PAGE, and assayed for tryptophan aminotransferase activity by following production of indole-pyruvic acid using the following protocol. […] The reactions were initiated by the addition of cell free extracts or purified enzyme and were incubated 30 minutes at 30° C. 20% TCA (200 μL) was added to stop the reaction, and the precipitated protein was removed by centrifugation. The absorbance at 327 nm was measured and compared to a standard curve of freshly prepared indole-3-pyruvate in the assay buffer. Control reactions without the substrate tryptophan or using cell-free extracts from clones transformed with pET30a alone were also performed.
Table 1 lists the specific activities measured in micrograms of indole-3-pyruvate (I3P) formed per milligram protein per minute. […] In these cases a ‘>’ precedes the specific activity number.

B1: B. subtilis D-aminotransf.: Bacillus subtilis D-alanine aminotransferase (dat) (protein, UniProt O07597 1-282, looked up)
D-alanine aminotransferase: MKVLVNGRLIGRSEASIDLEDRGYQFGDGIYEVIRVYKGVLFGLREHAERFFRSAAEIGISLPFSIEDLEWDLQKLVQENAVSEGAVYIQTTRGVAPRKHQYEAGLEPQTTAYTFTVKKPEQEQAYGVAAITDEDLRWLRCDIKSLNLLYNVMTKQRAYEAGAFEAILLRDGVVTEGTSSNVYAVINGTVRTHPANRLILNGITRMNILGLIEKNGIKLDETPVSEEELKQAEEIFISSTTAEIIPVVTLDGQSIGSGKPGPVTKQLQAAFQESIQQAASIS
Specific Activity: 2.7 μg I3P/mg protein/min
